Columns and labels:
Assay in all cases: native gel or EMSA
[1] = target: 12x nucleosome array (human | Xenopus laevis)
[2] = target: 147-bp nucleosome core particle (human | Xenopus laevis)
[3] = target: 209-bp nucleosome core particle (human | Xenopus laevis)

CBP core-ZZ-TAZ2 (domain or fragment) was tested. Which Kd [1] did it give?
Its Kd is 309 nM.

What about the Kd [2] of the same substance?
Its Kd is 1000 nM.

And the Kd [3]?
Its Kd is 540 nM.

Reference: paper doi:10.1101/2020.07.21.214338
